Assay results published in PMC2829087.

Target: Myc-GPI-TSHR-ecd (TSH receptor ectodomain, residues 1-412, linked to a GPI anchor, Myc-tagged) (human) (UniProt P16473)
Assay: FRET or BRET; sensitized emission FRET on transfected HEK 293 cells fixed with 4% paraformaldehyde; anti-HA FITC (donor) and anti-Myc Cy3 (acceptor), or GFP (donor) and anti-Myc Cy3 (acceptor) for full-length receptors; pFRET software

HA-GPI-TSHR-ecd (TSH receptor ectodomain, residues 1-412, linked to a GPI anchor, HA-tagged) (from UniProt P16473 21-412) (domain or fragment)
FRET efficiency: 8 to 10%
